B1: 15C11 (antibody, V domains shown)
VH: EVQLQQSGPVLVKPGASVKMSCKASGYTFTDYYMNWVKQSHGKSLEWIGVIIPYNGGTSYNQKFKGKATLTVDKSSSTAYMELNSLTSEDSAVYYCARDGHRWYFDVWGTGTTVTVSS
VL: DVVMTQTPLSLPVSLGDQASISCRSSQSLVHSNGNTYLHWYLQKPGQSPKLLIYKVSNRFSGVPDRFSGSGSGTDFTLKINRVEAEDLGVYFCSQSTHVPYTFGGGTQLEIK
B2: 34G3 (antibody, V domains shown)
VH: EFQLQQSGPELVKPGASVKISCKASGYSFTDYNMNWVKQSKGKSLEWIGVIIPNYGFTSYNQNFKGKATLTVDQSSSTAHMQLNSVTSEDSAVYYCVRDGGILLWYLDVWGTGTTVTVSS
VL: B1 VL with N81S, Q108K, K112N
B3: mouse 6B8 (antibody, V domains shown)
VH: QVQLQQSDAELVKPGTSVKTSCKISGNTFTDQTIHWMKQRPEQGLEWIGYIYPRDDSPKYNENFKGKATLTADKSSSTAYMQLNSLTSEDSAVYFCAIPDRSGYAWFIYWGQGTLVTVSS
VL: DIVMTQSHKFLSTSVGDRVTITCKASRDVAIAVAWYQQKPGQSPKLLLFWASTRHTGVPDRFTGSGSRTDFTLTISNVQSEDLADYFCHQYSSYPFTFGSGTKLEIK
B4: 26F7 (antibody, V domains shown)
VH: EVQLQQSGPELVKPGASVKISCKASGYTFTDYYMNWVRQSHGESLEWIGDFNHNNDVITYNPKFKGKVTLTVEKSSTTAYMELRSLSSEDSAVYYCARGLRGYYAMDYWGQGTSVTVSS
VL: DIVLTQSPASLAVSLGQRATISCRASKSVRFSDYFYMHWYQQKPGQPPKLLIYLASNLESGVPARFSGSGSGTDFTLNIHPVEEEDAATYYCQNSRELPYTFGGGTKLEIK
B5: 18E5 (antibody, V domains shown)
VH: EVQLQQSGPELVKPGAAVKMSCKASGYTFTRYLIHWVKQKPGQGLEWIGYINPYNDGTKYNEKFKGKATLTSDKSSSTAYMELSSLTSEDSAVYYCTSNWDLDYWGQGTTLTVSS
VL: DIVMTQSPATLSVTPGDRVSLSCRASQSISDYLYWYQQKSHESPRLLIKFASQSISGIPSRFTGSGSGSDFTLSIDSVEPDDVGVFFCQNGHSFPFTFGGGTKLEIK
B6: BI 655067 (VH 05-Vk65 IgG1) (antibody, V domains shown)
VH: QVQLVQSGAEVKKPGSSVKVSCKASGFTFTDQTIHWVRQAPGQGLEWMGYIYPRDDSPKYNENFKGKVTLTADKSTSTAYMELSSLRSEDTAVYYCAIPDRSGYAWFIYWGQGTLVTVSS
VL: DIQMTQSPSSLSASVGDRVTITCKASRDVAIAVAWYQQKPGKVPKLLLFWASTRHTGVPDRFSGSGSGTDFTLTISSLQPEDLADYYCHQYSSYPFTFGQGTKLEIK
B7: VH 36-Vk65 IgG1 (antibody, V domains shown)
VH: B6 VH with V20T, F27G, A40R, K67R, L70I
VL: B6 VL
B8: BI 655068 (VH 02-Vk65 IgG1) (antibody, V domains shown)
VH: B6 VH with F27Y, V37M, M48I, L70I
VL: B6 VL
B9: VH 65-Vk66 IgG1 (antibody, V domains shown)
VH: B6 VH with F27G, K67R, Y95F, I98R
VL: B6 VL with L48I, F49Y, D60S, G68R, L83V, Y87F, Q100S
B10: VH 02-Vk78 IgG1 (antibody, V domains shown)
VH: B6 VH with F27Y, V37M, M48I, L70I
VL: B6 VL with G68R, Q100S
B11: VH 36-Vk66 IgG1 (antibody, V domains shown)
VH: B6 VH with V20T, F27G, A40R, K67R, L70I
VL: B6 VL with L48I, F49Y, D60S, G68R, L83V, Y87F, Q100S
B12: VH 65-Vk78 IgG1 (antibody, V domains shown)
VH: B6 VH with F27G, K67R, Y95F, I98R
VL: B6 VL with G68R, Q100S
B13: BI 655069 (VH 05-Vk66 IgG1) (antibody, V domains shown)
VH: B6 VH
VL: B6 VL with L48I, F49Y, D60S, G68R, L83V, Y87F, Q100S
B14: VH 65-Vk65 IgG1 (antibody, V domains shown)
VH: B6 VH with F27G, K67R, Y95F, I98R
VL: B6 VL
B15: BI 655066 (VH 02-Vk66 IgG1) (antibody, V domains shown)
VH: B6 VH with F27Y, V37M, M48I, L70I
VL: B6 VL with L48I, F49Y, D60S, G68R, L83V, Y87F, Q100S
B16: VH 36-Vk78 IgG1 (antibody, V domains shown)
VH: B6 VH with V20T, F27G, A40R, K67R, L70I
VL: B6 VL with G68R, Q100S
B17: BI 655066, CHO derived (antibody, V domains shown)
VH: B6 VH with F27Y, V37M, M48I, L70I
VL: B6 VL with L48I, F49Y, D60S, G68R, L83V, Y87F, Q100S
B18: BI 655066, NS0 derived (human IgG1 Fc L234A, L235A) (antibody, V domains shown)
VH: B6 VH with F27Y, V37M, M48I, L70I
VL: B6 VL with L48I, F49Y, D60S, G68R, L83V, Y87F, Q100S
B19: recombinant chimeric 6B8 (antibody, V domains shown)
VH: B3 VH
VL: B3 VL

We go through 19 molecules from publication PMC4622456 (mAbs, 2015).

Where a chain is given by its changes, count along the chain named. Names and notes keep the numbering of the source. Some results are limits rather than exact numbers.

T1 sequence (Q9NPF7 20-189, chain 1 of 2): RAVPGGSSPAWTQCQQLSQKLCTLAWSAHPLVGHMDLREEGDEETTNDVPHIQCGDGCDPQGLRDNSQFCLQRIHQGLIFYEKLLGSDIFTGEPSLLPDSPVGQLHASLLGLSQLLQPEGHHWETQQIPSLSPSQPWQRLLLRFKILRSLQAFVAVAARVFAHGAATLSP
T1 sequence (P29460 23-328, chain 2 of 2): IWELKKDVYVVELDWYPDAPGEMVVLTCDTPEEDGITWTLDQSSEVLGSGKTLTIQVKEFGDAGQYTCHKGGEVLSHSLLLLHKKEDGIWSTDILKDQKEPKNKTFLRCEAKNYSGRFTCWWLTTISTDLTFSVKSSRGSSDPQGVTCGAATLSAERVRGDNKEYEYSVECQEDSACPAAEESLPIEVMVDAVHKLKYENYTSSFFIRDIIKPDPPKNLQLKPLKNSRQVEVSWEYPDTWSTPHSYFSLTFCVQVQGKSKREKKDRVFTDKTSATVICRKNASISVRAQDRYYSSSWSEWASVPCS

The first experiment has as its target T1, recombinant human IL23 (human, UniProt Q9NPF7;P29460). The experiment can be described thus: cell-based or functional assay.
Take B1: the “Inhibition of IL23 induced IL17 production in mouse splenocytes (IC50, pM)” value (from here on “Inhibition”) was 197 pM.

For B2, the “Inhibition” value stood at 8 pM.

Turning to B3, the “Inhibition” value amounted to 8 pM.

As for B4, the “Inhibition” value was found to be 9 pM.

For the molecule B5, the “Inhibition” value was less than 13 pM.

The target in the next experiment is T1, recombinant human IL23. The experiment can be described thus: SPR.
Consider B6, for which the dissociation constant (Kd) was less than 0.01 nM.

In the case of B7, the Kd amounted to 0.096 nM.

As for B8, the Kd turned out to be 0.015 nM.

With B9, the dissociation constant (Kd) was less than 0.01 nM.

Regarding B10, the Kd is less than 0.01 nM.

On to B11, for which the Kd is less than 0.01 nM.

B12: the Kd was less than 0.01 nM.

Regarding B13, the equilibrium dissociation constant (Kd) came out at 0.036 nM.

For B14, the Kd amounted to 0.107 nM.

For B15, the dissociation constant Kd is less than 0.01 nM.

Regarding B16, the Kd was less than 0.01 nM.

Another experiment concerns the target recombinant rat IL23 (Rattus norvegicus, UniProt Q91Z84;Q9R278). The experiment can be described thus: SPR.
Take B6: the binding result is listed as “no binding (tested: 1.2 μM)”.

For B8, the binding result is given as “no binding (tested: 1.2 μM)”.

On to B13, for which the binding result is listed as “no binding (tested: 1.2 μM)”.

With B15, the binding result was “no binding (tested: 1.2 μM)”.

The target of the next experiment is recombinant mouse IL23 (Mus musculus, UniProt Q9EQ14;P43432). The experiment can be described thus: SPR.
Chain of recombinant mouse IL23 (Q9EQ14 22-196, chain 1 of 2): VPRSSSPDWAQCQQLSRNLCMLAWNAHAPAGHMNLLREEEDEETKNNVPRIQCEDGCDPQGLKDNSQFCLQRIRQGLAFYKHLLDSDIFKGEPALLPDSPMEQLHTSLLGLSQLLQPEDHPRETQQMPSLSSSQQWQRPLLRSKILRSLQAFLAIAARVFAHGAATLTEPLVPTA
Chain of recombinant mouse IL23 (P43432 23-335, chain 2 of 2): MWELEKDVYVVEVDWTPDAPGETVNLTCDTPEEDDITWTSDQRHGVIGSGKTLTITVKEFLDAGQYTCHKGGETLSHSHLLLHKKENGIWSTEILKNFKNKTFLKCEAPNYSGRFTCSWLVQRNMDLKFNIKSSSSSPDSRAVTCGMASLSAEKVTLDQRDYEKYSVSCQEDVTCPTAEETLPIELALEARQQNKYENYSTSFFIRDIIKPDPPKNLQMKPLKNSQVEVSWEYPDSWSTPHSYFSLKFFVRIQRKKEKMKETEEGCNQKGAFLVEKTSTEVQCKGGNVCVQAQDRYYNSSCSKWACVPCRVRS
With B6, the binding result is given as “no binding (tested: 1.2 μM)”.

Turning to B8, the binding result is recorded as “no binding (tested: 1.2 μM)”.

Regarding B13, the binding result is on record as “no binding (tested: 1.2 μM)”.

As for B15, the binding result is “no binding (tested: 1.2 μM)”.

A further experiment deals with recombinant cynomolgus IL23 (Macaca fascicularis, UniProt H6WS56;H6WS55). The experiment can be described thus: SPR.
Consider B6, for which the dissociation constant Kd is less than 0.01 nM.

In the case of B8, the Kd is less than 0.01 nM.

Turning to B13, the dissociation constant (Kd) turned out to be 0.016 nM.

In the case of B15, the Kd was less than 0.01 nM.

For a further experiment, the target named is T1, recombinant human IL23. The experiment can be described thus: BLI.
With B6, the “kon(serum)/kon(buffer)” value stood at 1.2.

In the case of B8, the “kon(serum)/kon(buffer)” value came out at 1.

For the molecule B13, the “kon(serum)/kon(buffer)” value was determined as 1.2.

For B15, the “kon(serum)/kon(buffer)” value was found to be 1.2.

The next experiment has as its target T1, recombinant human IL23. The experiment can be described thus: SPR. This is another data set of the same source.
For B17, the Kd was less than 0.01 nM.

On to B18, for which the equilibrium dissociation constant (Kd) was less than 0.01 nM.

A further experiment deals with T1, recombinant human IL23. The experiment can be described thus: BLI. The source holds these as a separate data set.
As for B1, the Kd came to 0.026 nM.

Consider B2, for which the equilibrium dissociation constant (Kd) worked out at 0.033 nM.

As for B4, the dissociation constant (Kd) stood at 0.028 nM.

Regarding B5, the Kd was less than 0.01 nM.

A further experiment addresses T1, recombinant human IL23. The experiment can be described thus: SPR. The source holds these as a separate data set.
On to B3, for which the dissociation constant (Kd) was 0.025 nM.

Regarding B19, the Kd was less than 0.01 nM.
